From paper PMC13322254
One block for each substance: values may come before it.

Columns and labels:
[1] = molecular target: SB2F1 (Pseudomonas putida | Bradyrhizobium japonicum) (UniProt Q88JB0); assay: SEC; analytical SEC, in the dark only, Superdex 200 10/300 GL, 20 mM tris pH 8.0, 40 mM NaCl, 0.5 ml/min
[2] = molecular target: SB2F1 (Pseudomonas putida | Bradyrhizobium japonicum) (UniProt Q88JB0); assay: SAXS + other: DLS; in solution with ATP and MgCl2, in the dark and after blue light illumination; SAXS at 10 °C in 20 mM Hepes pH 7.5, 150 mM NaCl, 2% glycerol, 2 mM TCEP, 1.5 mM ATP, 3 mM MgCl2, 0.64 to 4.18 mg/ml; DLS at 20 °C, ~1 mg/ml
[3] = molecular target: SB2F1, SeMet-labeled (Pseudomonas putida | Bradyrhizobium japonicum) (UniProt Q88JB0); assay: crystal structure; dark-grown crystals, sitting-drop vapor diffusion, 19 °C, 10 to 12% PEG-8000, 0.2 M NaCl, 0.1 M sodium citrate pH 5.8 to 6.1, 1 mM ATP, 2 mM MgCl2; for SB2F1 also dark-grown crystals illuminated with blue light before data collection
[4] = molecular target: SB2F1-I66R, SeMet-labeled (Pseudomonas putida | Bradyrhizobium japonicum) (UniProt Q88JB0); assay: crystal structure; crystals grown under continuous blue light (450 nm), 19 °C, 16 to 20% PEG-3350, 0.2 M LiSO4, 0.1 M bicine pH 9.0 to 9.3, 1 mM ATP, 2 mM MgCl2
[5] = molecular target: SB2F1-I66R, SeMet-labeled (Pseudomonas putida | Bradyrhizobium japonicum) (UniProt Q88JB0); assay: crystal structure; dark-grown crystals, sitting-drop vapor diffusion, 19 °C, 10 to 12% PEG-8000, 0.2 M NaCl, 0.1 M sodium citrate pH 5.8 to 6.1, 1 mM ATP, 2 mM MgCl2; for SB2F1 also dark-grown crystals illuminated with blue light before data collection

- stoichiometry N [1]: 2
- stoichiometry N [2]: 2
Substance: SB2F1 (from UniProt Q88JB0 1-120) (enzyme)

- stoichiometry N [3]: 2
Substance: SB2F1, SeMet-labeled (from UniProt Q88JB0 1-120) (enzyme)

- stoichiometry N [4]: 2
- stoichiometry N [5]: 2
Substance: SB2F1-I66R, SeMet-labeled (from UniProt Q88JB0 1-120) (enzyme)
